Test results as given in patent US20130216544A1 (GEMOAB MONOCLONALS, published 2013).
Where a chain is given by its changes, count along the chain named.

T1: eukaryotic murine La protein (mLa) (murine, UniProt P32067 1-415)
T1 construct: In total extracts or fixed cells; also called endogenous mLa protein; eukaryote-produced murine La protein
T1 sequence (looked up): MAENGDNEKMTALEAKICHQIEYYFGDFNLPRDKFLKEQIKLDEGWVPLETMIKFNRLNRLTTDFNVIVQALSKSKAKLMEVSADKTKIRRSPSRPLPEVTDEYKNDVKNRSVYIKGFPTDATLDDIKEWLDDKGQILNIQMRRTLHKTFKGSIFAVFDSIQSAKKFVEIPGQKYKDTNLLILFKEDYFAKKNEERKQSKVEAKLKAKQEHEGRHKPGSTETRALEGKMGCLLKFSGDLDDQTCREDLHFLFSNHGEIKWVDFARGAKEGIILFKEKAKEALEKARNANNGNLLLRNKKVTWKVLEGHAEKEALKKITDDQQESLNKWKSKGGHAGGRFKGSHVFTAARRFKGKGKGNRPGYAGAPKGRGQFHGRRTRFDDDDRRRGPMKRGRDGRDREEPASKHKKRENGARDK

T2: bacterially produced recombinant murine La protein (rmLa) (murine, UniProt P32067 1-415)
T2 construct: also called prokaryote-produced murine La protein
T2 sequence (looked up): T1 sequence (looked up)

T3: recombinant human La protein (rhLa), SEQ ID No. 1 with His tag (human, UniProt P05455 1-408)
T3 construct: Also used to decorate the surface of 3T3 and HEK 293T PSCA cells; also called rhLa protein; His 6hLa protein; not shown: His tag
T3 sequence: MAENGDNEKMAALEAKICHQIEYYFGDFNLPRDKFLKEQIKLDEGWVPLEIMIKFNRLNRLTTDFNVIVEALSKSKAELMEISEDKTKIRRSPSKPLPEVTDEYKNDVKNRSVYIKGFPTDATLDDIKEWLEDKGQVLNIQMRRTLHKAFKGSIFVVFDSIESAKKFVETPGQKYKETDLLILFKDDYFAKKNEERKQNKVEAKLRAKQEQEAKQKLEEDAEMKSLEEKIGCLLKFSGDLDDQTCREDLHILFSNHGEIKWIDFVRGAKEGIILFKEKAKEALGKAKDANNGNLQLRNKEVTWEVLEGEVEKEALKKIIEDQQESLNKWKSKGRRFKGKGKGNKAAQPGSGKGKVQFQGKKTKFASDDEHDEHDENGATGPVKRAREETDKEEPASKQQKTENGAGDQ

B1: anti-La monoclonal antibody 22A (antibody, IgG1, V domains shown)
VH: QVKLEESGPELVKPGAPVKISCKTSGYTFTNYYIYWVKQRPGQGLEWIGYIYPGNGGTAYNQKFKDKATLTADNPSNTAYMQLSSLTSEDSAVYLCARRGALGYYFDYWGQGTTLTVSS
VL: QIVLTQSPAIMSASPGEKVTMTCSASSSVSYMYWYQQKSGTSPKRWIYDTSKLASGVPARFSGSGSGTSYSLTISSMEAEDAATYYCQQWSSNPQFGTGTKLEVKR
B2: anti-La monoclonal antibody 27E (antibody, IgG2b, V domains shown)
VH: VQLQESGAELARPGASVKLSCKASGYSFRSYGINWVKQRTGQGLEWIGEIYPGSGTTFYNEKFRGKATLTADKSSSTAYMQLKSLTSEDSAVYFCARHGGYPFYFDYWGQGTTLTVSS
VL: DIVMTQSPAIMSASPGEKVTISCSASSSVSYMYWYQQKPGSSPKPWIYRTSNLASGVPARFSGSGSGTSYSLTISSMEAEDAATYYCQQYHSYPRTFGGGTKLEIKR
B3: anti-La monoclonal antibody 32A (antibody, IgG1, V domains shown)
VH: VQLQQSGAELARPGASVKLSCKASGYTFTTYGLTWVKQRTGQGLEWIGEIFPGSGTTFYNEKFNDKATLTADKSSSTAYMQLTSLTSEDSAVYFCARYSNYPYYFDYWGQGTTLTVSS
VL: B2 VL with D1Q, M4L, A9T, A59D
B4: anti-La monoclonal antibody 7B6 (antibody, V domains shown)
VH: VKLQESGGGLVQPGRPMKLSCVASGFTFSDFWMNWVRQSPEKGLEWVAQIRNKPNNYETYYSDSLKGRFTISRDDSKSSVYLQMNNLRPEDMGIYYCTLGNSWFAYWGQGTLVTVS
VL: DIVITQSPSSLAVSAGEKVTMSCRSSQSLLDSRTRKNYLAWYQQKPGQSPKLLIYWASTRESGVPDRFTGSGSGTDFTLTISNVQAEDLAVYYCKQSYNLPTFGGGTKLEI
notes: Used as hybridoma supernatant or mAb; also called mAk 7B6; anti-La 7B6
B5: anti-La monoclonal antibody 2F9 (antibody, IgG1, V domains shown)
VH: EVQLQESGPGILQPSQTLSLTCSFSGFSLSTSGMGVSWIRQPSGKGLEWLAHIYWDDDKGYNPSLKSRLTISKDTSRNQVFLKITSVDTADTATYYCARGDVEFDYWGQGTTLTVSS
VL: DIVLTQSTASLAVSLGQRATISCRASESVDSYGNSFMHWYQQKPGQPPKLLIYRASNLESGIPARFSGSGSRTDFTLTINPVEADDVATYYCQQSNEDPPTFGSGTKLEIK
B6: anti-La monoclonal antibody 24BG7 (antibody, IgG1, V domains shown)
VH: QVQLQQSGAELARPGASVKLSCKASGYSLTNYGISWVKQRTGQGLEWIGEIYRGSGNSYYNEKFKGKASLTADKSSSTAYMQLSSLTSEDSAVYFCARGGLSFAYWGQGTLVTVSA
VL: QIVLTQSPAIMSASPGEKVTMTCSASSSVTYMHWYQQKSGTSPKRWIYDTSKLASGVPARFSGSGSGTSYSLTISTMEAEDAATYYCQQWISNPPTFGGGTKLEIKR
B7: anti-La monoclonal antibody 5B9 (antibody, IgG2a, V domains shown)
VH: VQLEESGAELVKPGASVKLSCKASGYAFTHYYIYWIKQRPGQGLEWIGGVNPSNGGTHFNEKFKSKATLTVDKSSSTAYMQLSSLTSEDSAVYYCTRSEYDYGLGFAYWGQGTLVTVSA
VL: IVLTQTTSSLAVSAGEKVTMSCKSSQSLLNSRTPKNYLAWYQQKPGQSPKLLIYWASTRKSGVPDRFTGSGSGTDFTLTISSVQAEDLAVYYCKQSYNLLTFGAGTKLELKR
notes: also called anti-La-5B9
B8: anti-La monoclonal antibody 312B (antibody, IgG1, V domains shown)
VH: QVKLQESGAELMKPGSSVKFSCKAAGYTFTDYWIEWLKQRPGHGLEWIGEILPGSVSIKYNEKFKGKATFTADTSSNTAYMQLSSLTSEDSAVYYCARSRSIYDGYFYYWGQGTTLTVSS
VL: DIVMTQSTASLSASVGETVTITCRASENIYTYLAWYQQKQGKSPQLLVYNAKTLAEGVPSRFSGSGSGTQFSLRINSLQPEDFGSYYCQHHYGTPYTFGGGTKLEIK

Key:
[1] = biological target: T1, eukaryotic murine La protein (mLa); experiment: immunoblot, 3T3 total extract
[2] = biological target: T2, bacterially produced recombinant murine …; experiment: immunoblot, bacterially produced rmLa
[3] = biological target: T3, recombinant human La protein (rhLa), …; experiment: method and form of the antigen not stated

| Binder | binding result [1] | binding result [2] | Kd [3] [nM] |
| --- | --- | --- | --- |
| B1 | no binding | no binding | ~0.1 |
| B2 | binds | binds | ~0.1 |
| B3 | no binding | no binding | ~0.1 |
| B4 |  |  | ~0.1 |
| B5 |  | binds |  |
| B6 |  |  | ~0.1 |
| B7 |  |  | ~0.1 |
| B8 | binds | binds | ~0.1 |
